Laboratory results as given in patent publication US20250376507A1 (INDUSTRY FOUNDATION OF CHONNAM NATIONAL UNIVERSITY, published 2025).

Key:
[1] = molecular target: CRT3LP (PASylated CRT-targeted L-ASNase: CRT3 monobody - L-ASNase - PAS200 tag - His6) (E. coli)
[2] = molecular target: CRT4LP (PASylated CRT-targeted L-ASNase: CRT4 monobody - L-ASNase - PAS200 tag - His6) (E. coli)

B1: recombinant calreticulin protein (rCRT) (other)
chain: EPAVYFKEQFLDGDGWTSRWIESKHKSDFGKFVLSSGKFYGDEEKDKGLQTSQDARFYALSASFEPFSNKGQTLVVQFTVKHEQNIDCGGGYVKLFPNSLDQTDMHGDSEYNIMFGPDICGPGTKKVHVIFNYKGKNVLINKDIRCKDDEFTHLYTLIVRPDNTYEVKIDNSQVESGSLEDDWDFLPPKKIKDPDASKPEDWDERAKIDDPTDSKPEDWDKPEHIPDPDAKKPEDWDEEMDGEWEPPVIQNPEYKGEWKPRQIDNPDYKGTWIHPEIDNPEYSPDPSIYAYDNFGVLGLDLWQVKSGTIFDNFLITNDEAYAEEFGNETWGVTKAAEKQMKDKQDEEQRLKEEEEDKKRKEEEEAEDKEDDEDKDEDEEDEEDKEEDEEEDVPGQAKDEL
Kd [1]: 2.07 nM | Kd [2]: 2.3 nM
